How the values were obtained:
[1] = system: C7.GAT C7 finger-3 helix RSDERKR replaced by TSGNLVR (SEQ 51) (synthetic); assay: EMSA; details: [none]; gel mobility shift; exact target oligo not stated
[2] = system: C7.GCG (C7) none; finger-3 helix RSDERKR (SEQ 50) (synthetic); assay: EMSA; details: CITED Segal 1999, exact target oligo not stated; cited from earlier work

GATTGGGCG (double strand) [C7.GAT target, finger-2 subsite TGG]
Kd [1]: 0.4 µM

GCGTGGGCG (double strand) [C7 target, finger-2 subsite TGG]
Kd [2]: 0.0005 µM
